Sequences and labels used below:
T1: fluorescein-labeled Y644-phosphorylated PIPKIγ661 peptide
T1 peptide: fluorescein-CDERSWV[pY]SPLHYSAR

T2: fluorescein-labeled Y649-phosphorylated PIPKIγ661 peptide
T2 peptide: fluorescein-CDERSWVYSPLH[pY]SAR

B1: PIPKIγ661 peptide PN (nonphosphorylated) (peptide)
peptide: CDERSWVYSPLHYSAR
B2: β1-integrin peptide β1InPN (nonphosphorylated) (peptide)
peptide: CMNAKWDTGENPIYKSA
B3: GST-talin head, wild type (human talin1 1–435) (domain or fragment)
chain: MVALSLKISIGNVVKTMQFEPSTMVYDACRIIRERIPEAPAGPPSDFGLFLSDDDPKKGIWLEAGKALDYYMLRNGDTMEYRKKQRPLKIRMLDGTVKTIMVDDSKTVTDMLMTICARIGITNHDEYSLVRELMEEKKEEITGTLRKDKTLLRDEKKMEKLKQKLHTDDELNWLDHGRTLREQGVEEHETLLLRRKFFYSDQNVDSRDPVQLNLLYVQARDDILNGSHPVSFDKACEFAGFQCQIQFGPHNEQKHKAGFLDLKDFLPKEYVKQKGERKIFQAHKNCGQMSEIEAKVRYVKLARSLKTYGVSFFLVKEKMKGKNKLVPRLLGITKECVMRVDEKTKEVIQEWNLTNIKRWAASPKSFTLDFGDYQDGYYSVQTTEGEQIAQLIAGYIDIILKKKKSKDHFGLEGDEESTMLEDSVSPKKSTVLQQQ
B4: β1-integrin peptide β1InpT (peptide)
peptide: CMNAKWD[pT]GENPIYKSA

Like-named read-outs stand apart in the source and are kept apart here. Where no end group is shown, it is not given here. [ ]: non-standard residue; d: D form. pY = N[C@@H](Cc1ccc(OP(=O)(O)O)cc1)C(=O)O; pT = C[C@@H](OP(=O)(O)O)[C@H](N)C(=O)O

Assay [1] deals with integrin–talin interaction. The note with it: ref Martel et al., 2001; cited from earlier work.
Assay [2] deals with tyrosine phosphorylation of PIPKIγ661 (Src family kinases). The class given is cell-based. The note with it: HEK293T cells, 1 μM for 30 min at 37°C; Fig. 2 A.
Assay [3] deals with B3. As to the kind of experiment: pull-down.
The target in assay [4] is B3. As to the kind of experiment: pull-down. This is another data set of the same source.
Assay [5] has as its target T1, fluorescein-labeled Y644-phosphorylated …. As to the kind of experiment: fluorescence polarisation.
For assay [6], the target named is T2, fluorescein-labeled Y649-phosphorylated …. As to the kind of experiment: fluorescence polarisation.

For the molecule “Phosphatidylinositol 4,5-bisphosphate [PI4,5P2]”, in assay [1], the “increase of the integrin–talin binding affinity” value is given as about 10 fold.
In the case of `CC(C)(C)n1nc(-c2ccc(Cl)cc2)c2c(N)ncnc21` [PP2], the “inhibition of basal and FAK-induced tyrosine phosphorylation of PIPKIγ661” value in assay [2] is on record as “inhibited”.
Turning to B1, in assay [3], the binding result was “binds”.
On to B2, for which the binding result in assay [4] was “binds”.
For B3, the “fold increase in binding affinity against the nonphosphorylated peptide” value in assay [5] and in assay [6] was about 15 fold each time.
As for B4, the binding result in assay [4] is given as “binds”.
